Experimental data taken from paper PMC5603883, “Challenges to Design and Develop of DNA Aptamers for Protein Targets. II. Development of the Aptameric Affinity Ligands Specific to Human Plasma Coagulation Factor VIII Using SEC-SELEX”.

Biological target: coagulation factor VIII (plasma-derived, Haemoctin 500) (Homo sapiens, UniProt P00451 20-2351)
Assay: nitrocellulose filter binding, fluorescence of filtrate; 5 mM CaCl2, 5 mM MgCl2; Tris 40 mM, NaCl 117 mM, CaCl2 5 mM, MgCl2 5 mM, pH 7.4; selection at 4 °C, Kd assay temperature not stated; FVIII 20 ng (700 pM), DNA 0.5-700 nM
Conditions: protein: commercial; label: fluorescein via labelled reverse primer (S3) stated for the labelling PCR; the labelled strand is not explicitly specified; predicted three-branch stem-loop

coagulation factor VIII (plasma-derived, Haemoctin 500), sequence (P00451 20-2351): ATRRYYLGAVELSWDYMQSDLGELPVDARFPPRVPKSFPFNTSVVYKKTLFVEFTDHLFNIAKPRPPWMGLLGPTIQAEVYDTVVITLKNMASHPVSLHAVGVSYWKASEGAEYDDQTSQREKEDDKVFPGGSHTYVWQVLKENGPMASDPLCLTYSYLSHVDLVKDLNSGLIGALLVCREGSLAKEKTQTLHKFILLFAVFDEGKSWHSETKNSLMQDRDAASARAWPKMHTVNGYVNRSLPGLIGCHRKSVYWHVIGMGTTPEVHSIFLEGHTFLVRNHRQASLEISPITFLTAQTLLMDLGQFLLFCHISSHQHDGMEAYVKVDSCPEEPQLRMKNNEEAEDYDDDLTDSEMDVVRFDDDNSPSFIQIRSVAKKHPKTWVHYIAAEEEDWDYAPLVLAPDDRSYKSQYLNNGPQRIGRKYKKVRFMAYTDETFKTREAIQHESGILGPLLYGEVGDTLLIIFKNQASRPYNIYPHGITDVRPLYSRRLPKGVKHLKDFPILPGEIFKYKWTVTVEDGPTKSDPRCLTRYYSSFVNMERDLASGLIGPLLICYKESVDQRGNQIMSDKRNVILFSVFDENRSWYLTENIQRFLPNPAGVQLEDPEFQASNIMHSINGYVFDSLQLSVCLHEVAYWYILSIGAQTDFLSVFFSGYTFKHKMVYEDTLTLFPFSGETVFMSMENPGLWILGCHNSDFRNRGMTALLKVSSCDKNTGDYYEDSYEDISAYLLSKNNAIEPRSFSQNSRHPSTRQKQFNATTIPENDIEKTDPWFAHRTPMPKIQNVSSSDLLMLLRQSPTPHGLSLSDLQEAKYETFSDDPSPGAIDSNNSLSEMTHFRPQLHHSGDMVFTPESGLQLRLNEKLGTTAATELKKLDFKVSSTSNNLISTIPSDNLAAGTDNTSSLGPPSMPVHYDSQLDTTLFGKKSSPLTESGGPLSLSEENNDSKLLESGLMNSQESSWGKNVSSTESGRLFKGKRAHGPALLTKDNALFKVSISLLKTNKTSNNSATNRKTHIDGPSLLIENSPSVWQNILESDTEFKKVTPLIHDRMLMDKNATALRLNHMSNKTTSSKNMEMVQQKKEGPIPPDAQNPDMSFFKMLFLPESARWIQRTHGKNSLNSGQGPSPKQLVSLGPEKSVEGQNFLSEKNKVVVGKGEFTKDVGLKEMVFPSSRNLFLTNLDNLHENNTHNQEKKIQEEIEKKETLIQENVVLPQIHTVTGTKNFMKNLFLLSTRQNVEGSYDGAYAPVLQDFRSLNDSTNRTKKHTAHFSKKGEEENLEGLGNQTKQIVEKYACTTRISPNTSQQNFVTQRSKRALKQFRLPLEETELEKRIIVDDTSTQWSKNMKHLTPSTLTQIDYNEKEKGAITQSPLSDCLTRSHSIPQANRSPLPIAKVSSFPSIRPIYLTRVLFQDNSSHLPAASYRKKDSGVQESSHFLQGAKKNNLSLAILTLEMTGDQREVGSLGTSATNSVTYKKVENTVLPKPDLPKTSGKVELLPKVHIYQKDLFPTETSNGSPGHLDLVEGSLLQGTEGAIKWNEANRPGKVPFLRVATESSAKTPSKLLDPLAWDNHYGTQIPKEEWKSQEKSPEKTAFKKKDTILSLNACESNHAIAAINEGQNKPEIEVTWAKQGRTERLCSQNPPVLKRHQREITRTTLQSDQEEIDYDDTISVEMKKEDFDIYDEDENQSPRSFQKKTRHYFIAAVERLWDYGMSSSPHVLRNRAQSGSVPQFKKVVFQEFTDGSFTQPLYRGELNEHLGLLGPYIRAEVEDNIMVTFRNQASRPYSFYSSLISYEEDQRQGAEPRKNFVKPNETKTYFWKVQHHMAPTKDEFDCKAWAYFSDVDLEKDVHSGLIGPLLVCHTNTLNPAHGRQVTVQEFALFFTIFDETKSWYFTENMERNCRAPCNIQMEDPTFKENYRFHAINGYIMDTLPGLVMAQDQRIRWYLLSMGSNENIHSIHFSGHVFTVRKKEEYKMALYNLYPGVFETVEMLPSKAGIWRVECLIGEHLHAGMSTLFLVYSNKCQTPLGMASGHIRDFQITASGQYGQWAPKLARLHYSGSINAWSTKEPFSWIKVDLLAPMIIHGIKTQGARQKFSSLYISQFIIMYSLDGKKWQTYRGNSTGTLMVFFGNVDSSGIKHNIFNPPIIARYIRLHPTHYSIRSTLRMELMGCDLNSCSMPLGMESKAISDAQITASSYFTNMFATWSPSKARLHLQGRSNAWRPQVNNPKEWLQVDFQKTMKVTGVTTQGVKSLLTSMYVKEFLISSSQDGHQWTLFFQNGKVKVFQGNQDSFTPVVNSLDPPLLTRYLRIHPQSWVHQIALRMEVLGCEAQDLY

B1: FVIII aptamer (full-length clone, 77 nt) (ssDNA)
DNA: GGTGTTACTCTTCATGTGGATCCGTACGTCCTGGGCTTCTTGATCGTCAGCCGAAGAATTCAGCACCCTAGCCTCGT
In the case of B1, the Kd is reported as 925 ± 11.6 nM.
